Assay results from paper PMC6667215, “Cell-sized confinement controls generation and stability of a protein wave for spatiotemporal regulation in cells” (eLife, 2019).

Target: T1, sfGFP-MinD^D40AΔ10 (E. coli MG1655, UniProt P0AEZ3 1-260, D40A)
T1 construct: MinD of E. coli MG1655 with the D40A mutation and deletion of the C-terminal 10 amino acids, made from pET15-sfGFP-minD; 55 kDa after removal of the 2 kDa His-Tag (so in the source); also called MinD mutant treated by thrombin; His-sfGFP-MinD^D40AΔ10 (before cleavage); not shown: His tag, N-terminal, cleaved; sfGFP, N-terminal, kept
T1 sequence (looked up): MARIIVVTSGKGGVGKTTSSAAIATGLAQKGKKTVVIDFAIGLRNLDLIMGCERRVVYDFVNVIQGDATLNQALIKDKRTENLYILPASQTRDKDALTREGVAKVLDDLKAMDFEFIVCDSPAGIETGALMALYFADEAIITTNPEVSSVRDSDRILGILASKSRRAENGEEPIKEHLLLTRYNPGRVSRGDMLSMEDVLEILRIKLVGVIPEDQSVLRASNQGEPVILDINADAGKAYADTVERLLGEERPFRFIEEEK
Assay: pull-down; His-tagged Min protein held on cOmplete His-Tag purification (Ni-NTA) resin; 9 µM MinE-mCherry-His, 3 µM His-sfGFP-MinD or 6 µM thrombin-treated MinD^D40AΔ10, with or without 3 µM BSA; RE buffer, 30 min, room temperature; washed with 20 mM imidazole, eluted with 250 mM imidazole; SDS-PAGE and CBB staining
Settings: both partners purified

B1: MinE-mCherry-His (natural protein, E. coli K12 MG1655, UniProt P0A734 1-88, looked up)
chain: MALLDFFLSRKKNTANIAKERLQIIVAERRRSDAEPHYLPQLRKDILEVICKYVQIDPEMVTVQLEQKDGDISILELNVTLPEAEELK
notes: MinE, gene amplified from the E. coli K12 MG1655 genome and cloned into pET29a with mCherry (pET29-minE-mCherry-His); The 6xHis-tag was attached at the C-terminal of mCherry by PCR; the mCherry gene came from the pET21b-RL027A plasmid (Addgene); source: E. coli BL21-CodonPlus(DE3) RIPL, purified (His-Tag purification resin, HiTrap Q HP); not shown: mCherry, C-terminal, kept; 6xHis, C-terminal, …
B1: binds.
